Data taken from publication PMC3336217, “^111In-Labeled Cystine-Knot Peptides Based on the Agouti-Related Protein for Targeting Tumor Angiogenesis” (Journal of Biomedicine and Biotechnology, 2012).
Positions of bridges follow the written chain, without caps; N, C: chain ends. Residues, ends and D or L forms follow the SMILES beside them. *: point of attachment. DOTA = O=C(O)CN1CCN(CC(=O)O)CCN(CC(=O)*)CCN(CC(=O)O)CC1

Assays:
[1] = in vivo; conditions: female, athymic nu/nu, mouse, iv, total radioactivity
Procedure: All animal studies were carried out in compliance with federal and local institutional rules for animal experimentation. Approximately, 10^7 U87MG cells were suspended in PBS and subcutaneously implanted in the left shoulders of female athymic nu/nu mice. Tumors were allowed to grow to a size of 0.5 cm (2-3 weeks) before imaging experiments were performed. For biodistribution studies, U87MG tumor-bearing mice (n = 3 for each group) were injected with ^111In-DOTA-AgRP-7C (0.259–0.37 MBq, […]) or ^111In-DOTA-AgRP-6E (0.296–0.444 MBq, 8–12 μCi) via the tail vein and sacrificed at different time points (0.5, 2, 24, and 48 h) after injection (p.i.). Tumor and normal tissues of interest were removed and weighed, and their radioactivity was measured with a γ-counter. Radioactivity uptake was expressed as the percent injected dose per gram of tissue (%ID/g). To test the in vivo αvβ3 integrin targeting specificity of the probe, U87MG tumor-bearing mice (n = 3 for each group) were injected via the tail vein with a mixture of ^111In-DOTA-AgRP-7C (0.259–0.37 MBq, 7–10 μCi) and 330 μg of c(RGDyK). The mice were sacrificed at 2 h p.i. and the biodistribution of the radiolabeled peptide was measured as above.
Quantitative data were expressed as mean ± SD. Means were compared using the Student t-test. A 95% confidence level was chosen to determine the significance between groups, with P values of less than 0.05 indicating significant differences.

[2] = in vitro; format: in vitro ADME; conditions: mouse, serum
Procedure: Radiolabeled AgRP* peptides were incubated in 0.01 M PBS (pH 7.4) at 37°C for 24 h and monitored for degradation by HPLC. Stability was also tested by incubating 0.74 MBq (20 μCi) ^111In-DOTA-AgRP-7C or ^111In-DOTA-AgRP-6E in 400 μL of mouse serum at 37°C for 2 h. Afterward, the mixture was re-suspended in 0.5 mL of DMF containing 5 μL of Triton X-100 and centrifuged at 16,000 g for 2 min. The supernatant, which contained >95% of the starting radioactivity, was filtered using a 10 K NanoSep device (Pall Corporation, East Hills, NY, USA). Greater than 99% of the radioactive material passed through this filter. The samples were analyzed by radio-HPLC, and the percentage of intact peptide was determined by quantifying peaks corresponding to the intact peptide and to the degradation products.
Figure 1 Stability analysis of ^111In-DOTA-AgRP-7C (a) and (b), and ^111In-DOTA-AgRP-6E (c) and (d) in PBS and mouse serum. The two radiopeptides were incubated with PBS for 24 h at […], and mouse serum for 2 h at 37°C.

CC(C)C[C@@H]1NC(=O)[C@@H]2CSSC[C@@H]3NC(=O)[C@H]([C@@H](C)O)NC(=O)[C@H](C)NC(=O)[C@H](C)NC(=O)[C@@H]4CCCN4C(=O)[C@H](CC(=O)O)NC(=O)[C@H](CSSC[C@H](NC(=O)CNC(=O)CN4CCN(CC(=O)O)CCN(CC(=O)O)CCN(CC(=O)O)CC4)C(=O)N[C@@H](C(C)C)C(=O)N[C@@H](CCCNC(=N)N)C(=O)N[C@@H](CC(C)C)C(=O)N[C@@H](Cc4c[nH]cn4)C(=O)N[C@@H](CCC(=O)O)C(=O)N[C@@H](CO)C(=O)N2)NC(=O)[C@H](CSSC[C@@H](C(=O)N[C@@H](CCCNC(=N)N)C(=O)O)NC(=O)[C@H](Cc2ccc(O)cc2)NC(=O)[C@@H]2CSSC[C@H](NC(=O)[C@H](Cc4ccc(O)cc4)NC3=O)C(=O)N[C@@H](C(C)C)C(=O)N[C@@H](CCC(=O)O)C(=O)N[C@@H](CCCNC(=N)N)C(=O)NCC(=O)N[C@@H](CC(=O)O)C(=O)NCC(=O)N[C@@H](CC(N)=O)C(=O)N[C@@H](CCCNC(=N)N)C(=O)N[C@@H](CCCNC(=N)N)C(=O)N2)NC(=O)[C@@H]2CCCN2C(=O)[C@H](C(C)C)NC(=O)[C@H](CCC(N)=O)NC(=O)[C@H](CCC(N)=O)NC(=O)CNC1=O [111In-DOTA-AgRP-6E, metal not drawn] ({DOTA}-GCVRLHESCLGQQVPCCDPAATCYCVERGDGNRRCYCR-OH; disulfide 2-17, 9-23, 16-37, 25-35)
tissue uptake at 0.5 h ([1]; Blood uptake): 1.27 ± 0.53 %ID/g
tissue uptake at 2 h ([1]; Blood uptake): 0.06 ± 0.05 %ID/g
tissue uptake at 24 h ([1]; Blood uptake): 0.01 %ID/g
tissue uptake at 0.5 h ([1]; Bone uptake): 1.18 ± 0.15 %ID/g
tissue uptake at 2 h ([1]; Bone uptake): 0.56 ± 0.1 %ID/g
tissue uptake at 24 h ([1]; Bone uptake): 0.36 ± 0.04 %ID/g
tissue uptake at 0.5 h ([1]; Brain uptake): 0.06 ± 0.01 %ID/g
tissue uptake at 2 h ([1]; Brain uptake): 0.02 ± 0.01 %ID/g
tissue uptake at 24 h ([1]; Brain uptake): 0.02 ± 0.01 %ID/g
tissue uptake at 0.5 h ([1]; Heart uptake): 0.8 ± 0.24 %ID/g
tissue uptake at 2 h ([1]; Heart uptake): 0.18 ± 0.06 %ID/g
tissue uptake at 24 h ([1]; Heart uptake): 0.12 ± 0.02 %ID/g
tissue uptake at 0.5 h ([1]; Intestine uptake): 2.04 ± 0.54 %ID/g
tissue uptake at 2 h ([1]; Intestine uptake): 1.13 ± 0.14 %ID/g
tissue uptake at 24 h ([1]; Intestine uptake): 0.93 ± 0.04 %ID/g
tissue uptake at 0.5 h ([1]; Kidneys uptake): 15.4 ± 3.19 %ID/g
tissue uptake at 2 h ([1]; Kidneys uptake): 14.7 ± 1.98 %ID/g
tissue uptake at 24 h ([1]; Kidneys uptake): 6.87 ± 1.19 %ID/g
tissue uptake at 0.5 h ([1]; Liver uptake): 0.87 ± 0.2 %ID/g
tissue uptake at 2 h ([1]; Liver uptake): 0.52 ± 0.01 %ID/g
tissue uptake at 24 h ([1]; Liver uptake): 0.48 ± 0.02 %ID/g
tissue uptake at 0.5 h ([1]; Lung uptake): 1.86 ± 0.56 %ID/g
tissue uptake at 2 h ([1]; Lung uptake): 0.54 ± 0.12 %ID/g
tissue uptake at 24 h ([1]; Lung uptake): 0.27 ± 0.02 %ID/g
tissue uptake at 0.5 h ([1]; Muscle uptake): 0.64 ± 0.09 %ID/g
tissue uptake at 2 h ([1]; Muscle uptake): 0.15 ± 0.07 %ID/g
tissue uptake at 24 h ([1]; Muscle uptake): 0.07 ± 0.01 %ID/g
tissue uptake at 0.5 h ([1]; Pancreas uptake): 0.57 ± 0.23 %ID/g
tissue uptake at 2 h ([1]; Pancreas uptake): 0.2 ± 0.06 %ID/g
tissue uptake at 24 h ([1]; Pancreas uptake): 0.14 ± 0.01 %ID/g
tissue uptake at 0.5 h ([1]; Spleen uptake): 1.36 ± 0.26 %ID/g
tissue uptake at 2 h ([1]; Spleen uptake): 0.83 ± 0.05 %ID/g
tissue uptake at 24 h ([1]; Spleen uptake): 0.65 ± 0.06 %ID/g
tissue uptake at 0.5 h ([1]; Stomach uptake): 2.02 ± 0.47 %ID/g
tissue uptake at 2 h ([1]; Stomach uptake): 0.87 ± 0.14 %ID/g
tissue uptake at 24 h ([1]; Stomach uptake): 0.53 ± 0.02 %ID/g
tissue uptake at 0.5 h ([1]; Tumor uptake): 1.76 ± 0.34 %ID/g
tissue uptake at 2 h ([1]; Tumor uptake): 1.21 ± 0.21 %ID/g
tissue uptake at 24 h ([1]; Tumor uptake): 0.89 ± 0.06 %ID/g
tissue to tissue ratio at 0.5 h ([1]; Tumor-to-blood ratio): 1.71 ± 1.21
tissue to tissue ratio at 2 h ([1]; Tumor-to-blood ratio): 33 ± 23.3
tissue to tissue ratio at 24 h ([1]; Tumor-to-blood ratio): 142 ± 3.39
tissue to tissue ratio at 0.5 h ([1]; Tumor-to-muscle ratio): 2.75 ± 0.28
tissue to tissue ratio at 2 h ([1]; Tumor-to-muscle ratio): 9.2 ± 3.88
tissue to tissue ratio at 24 h ([1]; Tumor-to-muscle ratio): 13.1 ± 1.94
remaining at 2 h, 1.85 MBq/mL [2]: > 95%
